Source: FireProtDB (doi:10.1021/bi5005975)

B1: H56V, Q9NAV8 (parent)
chain: MGFKQDIATIRGDLRTYAQDIFLAFLNKYPDERRYFKNYVGKSDQELKSMAKFGDHTEKVFNLMMEVADRATDCVPLASDANTLVQMKQHSSLTTGNFEKLFVALVEYMRASGQSFDSQSWDRFGKNLVSALSSAGMK

Variants of: B1
Settings: Amphitrite ornata; pH 7; 20 °C; Urea; UV?visible spectrophotometer; potassium phosphate 100 mM; transition: 2; reversible: yes; structure 1EW6; whole UniProt chain shown

**Q.** With H56V as the variant, how does the “ddG of mutation (higher = less stable)” value read?
**A.** -5.1 kcal/mol

**Q.** What about the “denaturant midpoint (higher = more stable)” value of the same variant?
**A.** 5.35 M

**Q.** And the unfolding free energy?
**A.** 7.52 kcal/mol

Same assay, conditions: Amphitrite ornata; pH 7; Thermal; UV?visible spectrophotometer; potassium phosphate 100 mM; transition: 2; reversible: yes; structure 1EW6; whole UniProt chain shown

**Q.** What does the source list for H56V?
**A.** Tm: 61 °C; change of melting temperature, mutant - wild type (higher = more stable): 7 °C
